For the assay, the target named is fibronectin (UniProt P02751).
Chain of UniProt P02751 (P02751 32-2477): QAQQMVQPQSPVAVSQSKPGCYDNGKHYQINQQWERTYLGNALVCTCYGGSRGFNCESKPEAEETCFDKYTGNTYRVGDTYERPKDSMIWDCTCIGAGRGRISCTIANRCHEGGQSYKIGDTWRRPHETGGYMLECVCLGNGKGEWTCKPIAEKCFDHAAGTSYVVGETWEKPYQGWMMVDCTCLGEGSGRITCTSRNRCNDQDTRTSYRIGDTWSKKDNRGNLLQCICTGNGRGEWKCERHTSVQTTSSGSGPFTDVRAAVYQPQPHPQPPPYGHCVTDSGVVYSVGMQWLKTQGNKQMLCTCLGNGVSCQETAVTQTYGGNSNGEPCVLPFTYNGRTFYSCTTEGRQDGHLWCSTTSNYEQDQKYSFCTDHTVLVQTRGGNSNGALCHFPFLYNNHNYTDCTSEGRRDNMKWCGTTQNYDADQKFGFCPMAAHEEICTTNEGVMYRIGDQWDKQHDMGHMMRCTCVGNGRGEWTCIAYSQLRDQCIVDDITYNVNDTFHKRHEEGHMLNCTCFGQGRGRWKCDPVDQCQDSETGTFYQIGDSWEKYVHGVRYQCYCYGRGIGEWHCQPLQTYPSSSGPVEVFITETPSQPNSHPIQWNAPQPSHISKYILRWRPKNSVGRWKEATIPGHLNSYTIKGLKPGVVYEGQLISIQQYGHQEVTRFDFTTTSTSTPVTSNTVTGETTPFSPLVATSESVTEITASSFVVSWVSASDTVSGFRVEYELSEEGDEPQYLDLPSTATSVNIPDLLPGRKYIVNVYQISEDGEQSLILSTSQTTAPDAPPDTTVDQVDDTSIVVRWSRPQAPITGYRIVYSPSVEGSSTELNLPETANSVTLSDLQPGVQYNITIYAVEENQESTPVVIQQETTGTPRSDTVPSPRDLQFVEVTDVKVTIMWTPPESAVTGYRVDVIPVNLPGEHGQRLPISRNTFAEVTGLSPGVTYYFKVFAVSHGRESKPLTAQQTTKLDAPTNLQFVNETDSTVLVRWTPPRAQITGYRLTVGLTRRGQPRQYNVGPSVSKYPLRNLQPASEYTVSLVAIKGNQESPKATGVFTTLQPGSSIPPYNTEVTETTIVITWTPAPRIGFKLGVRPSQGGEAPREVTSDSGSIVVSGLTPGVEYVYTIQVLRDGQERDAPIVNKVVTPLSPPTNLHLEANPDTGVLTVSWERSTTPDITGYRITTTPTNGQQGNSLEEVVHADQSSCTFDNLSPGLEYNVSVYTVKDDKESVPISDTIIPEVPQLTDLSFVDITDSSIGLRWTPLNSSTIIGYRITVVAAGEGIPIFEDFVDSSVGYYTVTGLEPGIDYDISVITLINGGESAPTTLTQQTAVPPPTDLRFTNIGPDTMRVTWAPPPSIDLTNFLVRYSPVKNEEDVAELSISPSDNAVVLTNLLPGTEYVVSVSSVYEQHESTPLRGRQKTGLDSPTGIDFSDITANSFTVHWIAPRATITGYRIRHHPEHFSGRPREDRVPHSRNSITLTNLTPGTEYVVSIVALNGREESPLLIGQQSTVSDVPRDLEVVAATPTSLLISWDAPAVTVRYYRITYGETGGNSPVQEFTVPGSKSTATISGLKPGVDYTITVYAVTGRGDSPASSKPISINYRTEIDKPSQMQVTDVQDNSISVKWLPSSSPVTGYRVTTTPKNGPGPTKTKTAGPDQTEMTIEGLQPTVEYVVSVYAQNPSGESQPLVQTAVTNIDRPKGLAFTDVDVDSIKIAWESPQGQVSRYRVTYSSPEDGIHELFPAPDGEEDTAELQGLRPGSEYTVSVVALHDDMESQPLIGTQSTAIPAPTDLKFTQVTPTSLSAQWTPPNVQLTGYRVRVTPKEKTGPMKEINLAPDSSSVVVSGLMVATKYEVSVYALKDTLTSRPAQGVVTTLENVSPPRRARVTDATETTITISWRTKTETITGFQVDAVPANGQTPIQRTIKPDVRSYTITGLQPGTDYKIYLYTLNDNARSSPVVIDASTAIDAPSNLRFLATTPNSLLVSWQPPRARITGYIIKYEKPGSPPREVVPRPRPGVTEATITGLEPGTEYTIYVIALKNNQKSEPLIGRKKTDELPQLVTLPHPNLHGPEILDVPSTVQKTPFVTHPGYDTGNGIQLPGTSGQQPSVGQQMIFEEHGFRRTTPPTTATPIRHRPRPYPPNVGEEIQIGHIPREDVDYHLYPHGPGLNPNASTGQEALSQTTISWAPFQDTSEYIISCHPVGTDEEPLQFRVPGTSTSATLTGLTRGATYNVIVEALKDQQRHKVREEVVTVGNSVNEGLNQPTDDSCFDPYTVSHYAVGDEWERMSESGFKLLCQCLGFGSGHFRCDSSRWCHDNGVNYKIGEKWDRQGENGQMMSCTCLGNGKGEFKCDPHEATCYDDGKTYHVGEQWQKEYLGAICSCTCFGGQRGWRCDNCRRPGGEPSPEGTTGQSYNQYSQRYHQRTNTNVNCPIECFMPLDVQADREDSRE

Chain of β1-integrin (P49134 21-799): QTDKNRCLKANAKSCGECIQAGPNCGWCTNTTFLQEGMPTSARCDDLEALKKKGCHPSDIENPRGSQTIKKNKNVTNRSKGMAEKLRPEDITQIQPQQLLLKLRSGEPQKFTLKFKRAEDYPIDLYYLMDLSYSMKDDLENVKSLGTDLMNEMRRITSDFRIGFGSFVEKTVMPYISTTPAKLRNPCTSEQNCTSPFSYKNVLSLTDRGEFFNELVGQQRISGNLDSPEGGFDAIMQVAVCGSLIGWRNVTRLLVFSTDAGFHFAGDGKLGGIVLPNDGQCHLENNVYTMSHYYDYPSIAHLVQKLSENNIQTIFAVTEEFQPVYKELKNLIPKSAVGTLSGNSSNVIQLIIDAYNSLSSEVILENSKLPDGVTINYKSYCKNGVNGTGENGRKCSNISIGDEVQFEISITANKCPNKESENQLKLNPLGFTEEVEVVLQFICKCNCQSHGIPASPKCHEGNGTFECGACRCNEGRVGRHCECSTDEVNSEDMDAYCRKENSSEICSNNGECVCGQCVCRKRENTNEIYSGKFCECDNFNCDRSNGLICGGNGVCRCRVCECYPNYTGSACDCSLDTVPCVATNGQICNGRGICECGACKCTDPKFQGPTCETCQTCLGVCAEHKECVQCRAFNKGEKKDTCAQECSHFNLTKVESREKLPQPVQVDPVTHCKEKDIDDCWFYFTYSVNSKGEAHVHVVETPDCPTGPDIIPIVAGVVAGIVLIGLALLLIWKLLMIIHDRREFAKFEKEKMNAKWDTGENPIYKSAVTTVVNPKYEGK

For “β1-integrin (from UniProt P49134 21-799) (receptor)”, the inhibition of adhesion of 3Y1 cells to fibronectin-coated plates (60 min, 37°C) by β1-integrin blocking antibody (hamster anti-rat CD29, 50 µg/mL) worked out at 51% and the inhibition of adhesion of HR-3Y1-2 cells to fibronectin-coated plates (60 min, 37°C) by β1-integrin blocking antibody (hamster anti-rat CD29, 50 µg/mL) came out at 57%.

Values taken from article PMC3334378.
